Measurements as given in US12624096B2, “Anti-tau antibodies and methods of use thereof” (GTInvent Limited, priority 2020, dated 2026).
Entries after “also recorded” stand apart in the source; their conditions may differ.

Tests used:
[1] = tested on: tau protein in brain homogenate; assay: Capture ELISA on transgenic mouse brain lysates; type: binding; conditions: S1D12 mAb capture; WT, L1, L66+/- and L66+/+
Experimental: Mouse brain lysates were prepared from wildtype, Line 1, Line 66+/+ and Line 66+/− (Melis et al., 2015, all surplus from Charles River, part of study R0144). All animals were female, 7-8 months old except Line 66+/+ which were 5 months old. […] The L1 cDNA construct (FIG. 23) contains human tau cDNA coding for amino acid residues 296-390 with a signal sequence and related sequences in a murine Thy-1 expression cassette. For brain lysate preparation, half brains were sectioned into four and the individual sections were homogenised in 400 μl of ice cold RIPA buffer (Cell signalling Technology) containing protease and phosphatase inhibitors. Total protein concentrations for individual samples were established by BCA-assay and each sample was subsequently diluted to 1 mg/ml for future experiments.
For capture ELISA, 100 µL S1D12 capture mAb was used to coat a nunc 96 well Maxisorp plate at 1 μg/ml and incubated for 1 hour at 37° C. Plate was washed as previously and then blocked for 1 hour at 37° C., in 2% MPBS. Brain homogenate samples (50 ng total protein) from each mouse type were added to the first wells and double diluted across the plate in PBS. These samples were left to incubate at RT for 1 hour. Various detection scAbs encompassing epitopes of interest were then added to the plate at 1 μg/ml and incubated for 1 h at RT. […]

hT40 = hT40 (Homo sapiens, UniProt P10636); assay: Sandwich ELISA, limits of detection (LoD) of antibody pairs; type: binding; conditions: S1D12 mAb capture
Sequence of hT40 (P10636 1-441 isoform P10636-8): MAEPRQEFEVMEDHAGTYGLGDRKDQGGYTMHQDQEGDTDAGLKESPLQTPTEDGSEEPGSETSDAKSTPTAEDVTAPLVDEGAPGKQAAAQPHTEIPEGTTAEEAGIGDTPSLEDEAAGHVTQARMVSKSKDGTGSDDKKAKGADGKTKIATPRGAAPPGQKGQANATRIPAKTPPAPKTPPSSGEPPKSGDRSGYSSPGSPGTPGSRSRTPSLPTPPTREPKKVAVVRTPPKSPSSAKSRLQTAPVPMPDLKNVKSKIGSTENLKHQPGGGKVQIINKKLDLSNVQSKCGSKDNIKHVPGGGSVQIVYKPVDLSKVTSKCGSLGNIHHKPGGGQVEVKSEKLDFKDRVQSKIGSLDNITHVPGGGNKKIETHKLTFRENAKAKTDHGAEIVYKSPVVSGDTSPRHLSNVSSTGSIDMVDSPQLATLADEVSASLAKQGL
Experimental: Full length tau (hT40), at 1 μg/ml starting concentration was added to designated wells and double diluted across rest of the plates and left to incubate at R/T for 1 h. A series of detection scAbs with varying epitope recognition properties were added at 10 μg/ml to designated wells (FIG. 22). For colourimetric detection HRP conjugated anti-HuCk secondary antibody was used and the resulting immunoreaction was developed and absorbance at 450 nm measured as described previously. Cut-off point for a positive binding event was an absorbance value of 0.3 following background subtraction. In order to enhance the assay sensitivity, a chemiluminescent detection method was adopted where 50 μL SuperSignal ELISA Femto Substrate (Thermo Scientific) was added to each well following incubation with anti-HuCK HRP antibody and subsequent washing. The luminescence was read using Clariostar Plus microplate reader. A further modification to this protocol was done where various detection scAbs were directly conjugated with HRP and detected using chemiluminescent protocol as before. The lowest levels of detection achieved using different detection scAbs and a comparison of colourimetric and chemiluminescent methods of detection are shown in Table 28
The assay was conducted using chemiluminescent protocol described above.

dGAE = dGAE (Homo sapiens, UniProt P10636); assay: dGAE fibril assembly, Thioflavin S fluorescence; type: biochemical; conditions: 25 and 100 μM dGAE, ratios 4:1 or 1:1
Sequence of dGAE (P10636 614-708): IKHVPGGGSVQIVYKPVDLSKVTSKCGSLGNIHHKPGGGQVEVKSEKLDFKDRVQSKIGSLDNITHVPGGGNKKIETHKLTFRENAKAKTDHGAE
Experimental: dGAE protein was diluted into 10 mM phosphate buffer, pH 7.4 (PB) with monoclonal antibody s1D12 at a ratio of 4:1 protein: Ab (100 μM dGAE+25 μM s1D12 and 10 μM dGAE+2.5 μM s1D12) or 1:1 (25 μM dGAE+25 μM s1D12).
As a positive control, dGAE was prepared at a final concentration of 10, 25 or 100 μM in 10 mM PB. Negative controls consisted of dGAE with a non-tau IgG antibody at a ratio of 4:1 (10 μM dGAE+2.5 μM anti-ovalbumin), or antibody alone (25 or 2.5 μM s1D12 and 2.5 μM anti-ovalbumin). Samples were agitated at 700 rpm at 37° C., for 3 days.
For CD, 60 μL sample was placed in a 0.1 mm quartz cuvette and placed into a JASCO spectropolarimeter. 100 μL ThS in 20 mM MOPS buffer was added to 50 μL of each sample to a final concentration of 20 μM, mixed well, incubated at room temperature for 10 minutes then fluorescence intensity measured in a Cary Eclipse spectrophotometer using an excitation wavelength of 440 nm. Baseline readings from 10 mM PB were subtracted from CD and ThS measurements.

[2] = Pharmacokinetic study of S1D12 mAb, single dose, plasma and brain (dGAE ligand binding ELISA); type: in vivo, mouse; conditions: single dose 30 mg/kg i.p., NMRI mice, plasma
Experimental: For the PK study, a total of 42 female NMRI mice (Swiss-type mouse, Naval Medical Research Institute) aged 6 months were allocated into six groups according to sample collection time (Table 30 for group size). Animals were injected intraperitoneally with S1D12 (30 mg/kg) and sacrificed 24-, 48-, 72-hours and 7-, 14- and 31-days after injection to collect blood and brain samples. A control group was also included in which animals were sacrificed to collect blood and brain, but no test item was administered.
Blood samples were centrifuged to obtain plasma at 2000×g for 5 min at 6° C., and samples were stored at −20° C. After blood collection, each mouse was perfused with heparinized saline for 2-3 minutes and the entire brain removed rapidly and snap frozen in liquid nitrogen and stored at −80° C.
Briefly, dGAE (1 μg/mL) was used to coat ELISA plates and blocked with 2% Marvel. […] Following washing, HRP-conjugated anti-mouse IgG as detector was added, and the assay developed using TMB solution as normal. The absorbance at 450 nm was read using a Clariostar plate reader (BMG Labtech) and MARS Clariostar software used to calculate S1D12 concentration from a standard curve.
Average values from each group (representing a time point) was plotted (FIG. 10) and the in vivo half-life, Cmax and Tmax calculated by performing a non-compartmental analysis of the plasma data using the PKSolver2.0 software (FIG. 51, Table 31). […] Here a higher coating concertation of dGAE at 10 μg/ml was used to compete off antibody binding to tau present in the brain.

plasma tau = assay: Plasma tau (Simoa) after S1D12 immunotherapy; type: in vivo, mouse; conditions: L66 mice
Experimental: In a six-week repeat-dose study, a total of 12 WT, 12 Line 1 (L1) and 12 Line 66 homozygotes (L66+/*) female mice aged 2-months at the beginning of the study were used (Table 32 for group size). Mice in each genotype were injected intraperitoneally (i.p.) with either vehicle or S1D12 (30 mg/kg), once per week, for six consecutive weeks.
Three-step assays were performed and analysed as per previously described plasma screening methods in this document.

| Molecule | tau detection in mouse brain homogenate [1] | LoD direct HRP conjugation of detection scAb & chemiluminescence (hT40) | ThS fluorescence signal at 483 nm (dGAE) | Tmax (time of peak plasma concentration) [2] | t1/2 (elimination half-life from plasma) ([2]; non-compartmental analysis) | Cmax ([2]; read-out: Cmax (peak plasma concentration)) | increase in plasma tau vs vehicle, NT1 assay (plasma tau) | plasma tau, NT1 assay (BT2 capture with Tau12 detection) (plasma tau; S1D12 mAb 30 mg/kg weekly for 6 weeks) | increase in plasma tau vs vehicle, BT2-HT7 (plasma tau; did not reach statistical significance) |
| --- | --- | --- | --- | --- | --- | --- | --- | --- | --- |
| S1G2: anti-tau clone, SEQ ID NO: 81 (protein, S1G2 amino acid sequence) scFv: QVQLQESGPSLVKPSQTLSLTCTVSGFSLTSNSVGWVRQAPGKAPEWVAGIDTDGEEGYNPALNSRLSITRDTSKSQVSLSLSSVTSEDTAVYYCGRSYRADGLAYGYVQAIDYWGPGLLVTVSSEGKSSGASGESKVDDQAVVTQPSSVSGSLGQRVSITCSGSFIGISSVGWFQQLPGSGLRTIIVASDGRPSGVPDRFSMSKSGNTATLTISSLQAEDEADYFCGSSDRTPYTGVFGSGTRLTVLG | tau protein was detected in 50 μg of total brain protein in all four different sample types | 0.04 ng/mL | – | – | – | – | – | – | – |
| S1D12: anti-tau clone from immunised sheep, SEQ ID NO: 32 (protein, S1D12 amino acid sequence) scFv: QVQLQESGPSLVKPSQTLSLTCTVSGFSLNNNAVGWVRQAPGKVPESLVGCSSDGTCYYNSALKSRLDITRDTSKNQISLSLSSVTTDDAAVYYCTRGHYSIYGYDYLGTIDYWGPGLLVTVSSEGKSSGASGESKVDDQAVLTQPSSVSGSLGQRVSITCSGSSSNVGGGNSVGWYQHLPGSGLKTIIYDTNSRPSGVPDRFSGSRSGNTATLTINSLQAEDEGDYYCVTGDSTTHDDLVGSGTRLTVLG | – | – | this signal was abolished; also recorded: abolished when s1D12 is included in the assembly mixture | 24 h | 256.2 h | 1.46 µM | four-fold increase | 3.2 ± 0.42 pg/mL | two-fold increase |
